Values quoted from earlier work in paper PMC3461832.

Tests used:
[1] = molecular target: fibrinogen Bβ chain 6-20 (Homo sapiens) (UniProt P02675)
[2] = molecular target: fibrinogen Bβ chain peptide β1-25 1-25 (Homo sapiens) (UniProt P02675)

UniProt P02675, sequence (P02675 1-25): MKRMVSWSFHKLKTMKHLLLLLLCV

Substance: SdrG (from UniProt Q9KI13)
- Kd [1]: 90 nM
- Kd [2]: 140 nM
